Data reported in publication PMC9194504, “Chondroitin Sulfates Control Invasiveness of the Basal-Like Breast Cancer Cell Line MDA-MB-231 Through ROR1” (Frontiers in Oncology, 2022).

Biological target: T1, Recombinant human ROR1-Fc chimera (human, UniProt Q01973 30-406)
T1 construct: receptor tyrosine kinase-like orphan receptor 1 (ROR1), human; recombinant ROR1-Fc chimera, R&D Systems Cat. No. 9490-RO; also called receptor tyrosine kinase-like orphan receptor 1; recombinant ROR1; source: bought: R&D Systems (Cat. No. 9490-RO)
T1 sequence (Q01973 30-406, change not shown): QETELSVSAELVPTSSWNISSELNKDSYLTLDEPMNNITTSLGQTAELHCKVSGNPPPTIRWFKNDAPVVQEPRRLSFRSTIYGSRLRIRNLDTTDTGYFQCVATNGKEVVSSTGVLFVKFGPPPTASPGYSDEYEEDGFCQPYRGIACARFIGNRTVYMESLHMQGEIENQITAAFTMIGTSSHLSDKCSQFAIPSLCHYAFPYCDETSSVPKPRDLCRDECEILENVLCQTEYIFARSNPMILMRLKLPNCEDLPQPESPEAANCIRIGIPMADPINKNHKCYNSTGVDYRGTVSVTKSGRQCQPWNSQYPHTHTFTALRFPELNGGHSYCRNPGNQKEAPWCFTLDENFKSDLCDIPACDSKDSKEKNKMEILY
Experiment: SPR; Biacore X100; ROR1-Fc amine-coupled on a CM5 chip (~3,200 RU); protein analyte premixed with CS-E (CS-E:protein molar ratio 7:1), 30 μl/min, 120 s, dissociation 130 s, 25°C; 50 mM Tris-HCl pH 7.5
Conditions: both partners purified

binding result: binds
B1: recombinant human DKK1 (ligand, UniProt O94907 32-266, looked up)
chain: TLNSVLNSNAIKNLPPPLGGAAGHPGSAVSAAPGILYPGGNKYQTIDNYQPYPCAEDEECGTDEYCASPTRGGDAGVQICLACRKRRKRCMRHAMCCPGNYCKNGICVSSDQNHFRGEIEETITESFGNDHSTLDGYSRRTTLSSKMYHTKGQEGSVCLRSSDCASGLCCARHFWSKICKPVLKEGQVCTKHRRKGSHGLEIFQRCYCGEGLSCRIQKDHHQASNSSRLHTCQRH
notes: Dickkopf-1 (DKK1), human, recombinant, R&D Systems Cat. No. 5439-DK/CF; also called Dickkopf-1; source: bought: R&D Systems (Cat. No. 5439-DK/CF)
